The assay has as its target Full length human APOBEC3G (human) (UniProt Q9HC16). Nature of the assay: time-lapse high-speed AFM.

Consider “Full length human APOBEC3G (from UniProt Q9HC16 1-384) (enzyme)”, for which the stoichiometry N (as a rule, the number of molecules, sites or subunits per partner or assembly) is 2.

(Values after PMC5712427.)
